Assays:
Experiment in all cases: EMSA; also decreased affinity in quantified assay
Conditions in all cases: tags: His-tag, E. coli; stem-loop
PAH S349L = target: T1, PAH S349L (Homo sapiens, UniProt P00439 P00439:1-452, S349L)
T1 sequence: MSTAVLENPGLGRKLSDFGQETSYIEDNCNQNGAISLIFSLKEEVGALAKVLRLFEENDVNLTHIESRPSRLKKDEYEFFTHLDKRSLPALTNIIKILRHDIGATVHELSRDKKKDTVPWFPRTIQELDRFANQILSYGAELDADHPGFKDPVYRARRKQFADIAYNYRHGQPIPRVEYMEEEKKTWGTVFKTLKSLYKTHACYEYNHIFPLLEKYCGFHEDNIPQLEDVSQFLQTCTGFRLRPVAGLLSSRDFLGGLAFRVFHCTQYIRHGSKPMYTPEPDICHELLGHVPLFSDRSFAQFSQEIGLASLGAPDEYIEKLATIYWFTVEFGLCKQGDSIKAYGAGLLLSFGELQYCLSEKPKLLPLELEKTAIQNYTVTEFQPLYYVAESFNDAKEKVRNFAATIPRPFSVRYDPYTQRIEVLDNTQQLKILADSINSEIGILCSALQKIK
Text: (§1) It was reasoned that supplementing lncRNAs might improve the catalytic activities of the PAH mutants, leading to reduced serum Phe concentrations and improved symptoms in patients with PKU. Scramble (Scr) and HULC mimics representing wild-type HULC nt. 181-201 and HULC A191G mutated sequences were designed for the following studies. 17 PAH mutants that were identified from patients with PKU and are known to affect the enzymatic activity of PAH (21, 22) were selected, and bacterially-expressed wild-type and mutant PAH (FIG. 10 and see FIG. S13A in Li et al. 2021) were collected. […] The denatured wild-type PAH proteins were included as a negative control.
(§2) RNA Electrophoretic Mobility Shift Assay (EMSA). The gel mobility shift assay was performed as previously described (42). Briefly, 500 ng recombinant His-tagged wild-type PAH or mutants were incubated with 0.035 μmol labeled probe in a RNA-protein binding buffer [(50 mM Tris-HCl 7.9, 10% glycerol, 100 mM KCl, 5 mM MgCl₂, 10 mM (3-ME, 0.1% NP40] for 30 min at 30° C. For cold RNA competition, 0.035 μmol radiolabeled RNA probes were first mixed with 7 μmol cold RNA competitors and then subjected to the gel shift assay.

PAH TH63-64PN = target: T2, PAH TH63-64PN (Homo sapiens, UniProt P00439 P00439:1-452, T63P,H64N)
T2 sequence: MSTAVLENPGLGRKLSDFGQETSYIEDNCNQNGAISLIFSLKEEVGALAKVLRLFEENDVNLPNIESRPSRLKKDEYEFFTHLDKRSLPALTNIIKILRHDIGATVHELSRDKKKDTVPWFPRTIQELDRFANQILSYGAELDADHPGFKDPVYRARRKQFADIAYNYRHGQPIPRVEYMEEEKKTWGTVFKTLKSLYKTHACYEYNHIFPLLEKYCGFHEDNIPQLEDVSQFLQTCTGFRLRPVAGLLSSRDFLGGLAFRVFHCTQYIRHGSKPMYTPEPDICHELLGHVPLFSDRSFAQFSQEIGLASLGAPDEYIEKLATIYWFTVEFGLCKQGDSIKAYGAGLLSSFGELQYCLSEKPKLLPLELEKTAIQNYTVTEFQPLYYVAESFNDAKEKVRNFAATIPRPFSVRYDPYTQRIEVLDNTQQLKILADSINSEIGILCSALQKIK
Text: as §1, §2

PAH N207S = target: T3, PAH N207S (Homo sapiens, UniProt P00439 P00439:1-452, N207S)
T3 sequence: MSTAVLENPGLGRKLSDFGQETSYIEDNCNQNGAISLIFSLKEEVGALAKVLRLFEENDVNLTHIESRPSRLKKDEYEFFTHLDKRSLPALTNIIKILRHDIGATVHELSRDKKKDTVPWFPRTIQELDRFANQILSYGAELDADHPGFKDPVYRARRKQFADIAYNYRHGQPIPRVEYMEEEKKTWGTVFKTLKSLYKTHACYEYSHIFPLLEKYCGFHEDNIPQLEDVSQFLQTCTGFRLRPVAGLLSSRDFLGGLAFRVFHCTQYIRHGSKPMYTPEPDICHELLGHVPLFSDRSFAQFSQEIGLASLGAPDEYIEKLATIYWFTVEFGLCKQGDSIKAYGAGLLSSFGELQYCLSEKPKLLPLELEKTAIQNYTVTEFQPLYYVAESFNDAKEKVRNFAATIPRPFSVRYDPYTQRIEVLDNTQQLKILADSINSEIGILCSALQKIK
Text: as §1, §2

PAH R157N = target: T4, PAH R157N (Homo sapiens, UniProt P00439 P00439:1-452, R157N)
T4 sequence: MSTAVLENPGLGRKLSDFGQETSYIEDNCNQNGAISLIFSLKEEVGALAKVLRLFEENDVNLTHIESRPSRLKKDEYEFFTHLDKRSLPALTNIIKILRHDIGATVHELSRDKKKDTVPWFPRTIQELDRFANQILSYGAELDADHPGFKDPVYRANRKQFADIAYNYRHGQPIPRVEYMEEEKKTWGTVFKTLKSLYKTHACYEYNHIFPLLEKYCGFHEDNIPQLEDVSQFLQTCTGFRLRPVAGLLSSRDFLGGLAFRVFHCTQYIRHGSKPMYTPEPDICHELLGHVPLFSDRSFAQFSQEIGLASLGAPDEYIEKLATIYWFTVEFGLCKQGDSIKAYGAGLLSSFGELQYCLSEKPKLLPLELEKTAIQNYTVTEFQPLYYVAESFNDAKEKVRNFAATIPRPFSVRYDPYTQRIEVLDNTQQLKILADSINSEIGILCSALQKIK
Text: as §1, §2

Measured: binding result

B1: HULC 181-201 mimic (ssRNA)
RNA: CAAAAUGCAUAUGUAUCUUUG
no binding: PAH S349L | PAH TH63-64PN | PAH N207S | PAH R157N
